Assay results as given in patent US20240116985A1 (published 2024).
Starred links: 1 amine or outer side, 2 acyl side, 3 side chain; linkers in the order of their positions; H or OH if unused. Positions of bridges follow the written chain, without caps; N, C: chain ends. Non-standard residues stand in square brackets, D forms with d. Primed or numbered codes have the meaning given here. PyrS2″ = (S)-3-amino-1-((pent-4-en-1-yloxy)carbonyl)pyrrolidine-3-carboxylic acid (stapling residue), C=CCCCOC(=O)N1CC[C@@](N[*:1])(C(=O)[*:2])C1; B5(4) = 2,2-bis(4-pentenyl)glycine = 2-amino-2-(pent-4-en-1-yl)hept-6-enoic acid (stitching residue), C=CCCCC(CCCC=C)(N[*:1])C(=O)[*:2]; PyrS2 = (S)-3-amino-1-((pent-4-en-1-yloxy)carbonyl)pyrrolidine-3-carboxylic acid, C=CCCCOC(=O)N1CC[C@@](N[*:1])(C(=O)[*:2])C1; PyrS1 = (S)-3-amino-1-((but-3-en-1-yloxy)carbonyl)pyrrolidine-3-carboxylic acid, C=CCCOC(=O)N1CC[C@@](N[*:1])(C(=O)[*:2])C1; B6 = 2-amino-2-(hex-5-en-1-yl)oct-7-enoic acid, C=CCCCCC(CCCCC=C)(N[*:1])C(=O)[*:2]; Me2Asn = listed as N4-methyl-L-asparagine, CNC(=O)C[C@H](N[*:1])C(=O)[*:2]; Phe(3-COOH) = N[C@@H](Cc1cccc(C(=O)O)c1)C(=O)O; Phe(2-CF3) = N[C@@H](Cc1ccccc1C(F)(F)F)C(=O)O; Bta = N[C@@H](Cc1csc2ccccc12)C(=O)O; αAllylPro = C=CC[C@@]1(C(=O)O)CCCN1; tBuAla = CC(C)(C)C[C@H](N)C(=O)O; 3Thi = N[C@@H](Cc1ccsc1)C(=O)O; BnBoroleK = not defined here; PyrS2(4) = not defined here; TfeGA″ = not defined here; Nle = CCCC[C@H](N)C(=O)O; Aib = CC(C)(N)C(=O)O

B1: I-2188 (peptide)
peptide: Ac-[αAllylPro]D[tBuAla][B5(4)]D[Phe(3-COOH)][Me2Asn]AFL[PyrS2(4)][3Thi][Bta]A-NH2
modifications: staple 1-4, 4-11; reading uncertain; also: printed as Ac-PL3-Asp-Npg-B5-Asp-3COOHF-Me2Asn-Ala-Phe-Leu-PyrS2-3Thi-BztA-Ala-NH2
B2: I-2190 (peptide)
peptide: Ac-[αAllylPro]D[tBuAla][B5(4)]D[Phe(3-COOH)]SAFL[PyrS2(4)][3Thi][Bta]V-NH2
modifications: staple 1-4, 4-11; reading uncertain; also: printed as Ac-PL3-Asp-Npg-B5-Asp-3COOHF-Ser-Ala-Phe-Leu-PyrS2-3Thi-BztA-Val-NH2

molecular target: T1, B-cat-Halo (beta-catenin HaloTag construct expressed in HEK293 cells) (UniProt P35222 1-781); assay: cell-based or functional assay
T1 sequence (looked up): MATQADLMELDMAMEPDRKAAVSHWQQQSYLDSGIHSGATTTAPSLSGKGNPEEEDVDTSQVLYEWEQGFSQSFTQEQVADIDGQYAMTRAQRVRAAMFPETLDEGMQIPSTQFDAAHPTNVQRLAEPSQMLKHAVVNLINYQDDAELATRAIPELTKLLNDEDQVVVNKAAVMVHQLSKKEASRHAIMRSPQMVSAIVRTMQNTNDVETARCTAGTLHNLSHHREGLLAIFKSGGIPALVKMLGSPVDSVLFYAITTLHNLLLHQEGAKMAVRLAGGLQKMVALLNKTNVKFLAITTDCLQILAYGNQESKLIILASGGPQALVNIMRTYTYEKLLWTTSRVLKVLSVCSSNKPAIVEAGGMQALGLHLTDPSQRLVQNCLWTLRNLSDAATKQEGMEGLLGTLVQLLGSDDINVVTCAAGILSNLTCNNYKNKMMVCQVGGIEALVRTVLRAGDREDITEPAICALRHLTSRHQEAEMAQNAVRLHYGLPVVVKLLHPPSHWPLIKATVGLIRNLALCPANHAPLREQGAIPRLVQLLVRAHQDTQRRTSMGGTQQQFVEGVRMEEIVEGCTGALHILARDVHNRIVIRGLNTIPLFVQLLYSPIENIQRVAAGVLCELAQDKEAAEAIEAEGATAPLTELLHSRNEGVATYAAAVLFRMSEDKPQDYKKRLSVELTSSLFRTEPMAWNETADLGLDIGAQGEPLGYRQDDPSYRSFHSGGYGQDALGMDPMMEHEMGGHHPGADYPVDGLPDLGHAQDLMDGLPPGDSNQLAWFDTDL

Binder | NanoBRET Abs IC50 (uM); Bcat-Halo / TCF4-Luc in HEK293 cells [µM]
Ac-[αAllylPro]D[tBuAla][B6]D[Phe(3-COOH)]QAFL[PyrS1][Phe(2-CF3)][Bta]A-NH2 (staple 1-4, 4-11) [I-2510] | 7.8
Ac-[αAllylPro]D[tBuAla][B6]D[Phe(3-COOH)]QAFL[PyrS2][Phe(2-CF3)][Bta]A-NH2 (staple 1-4, 4-11) [I-2515] | > 20
Ac-[αAllylPro]D[tBuAla][B6]D[Phe(3-COOH)]AAFL[PyrS2][Phe(2-CF3)][Bta]Q-NH2 (staple 1-4, 4-11) [I-2513] | > 20

molecular target: T2, B-cat-Halo (beta-catenin HaloTag construct expressed in HEK293 cells) (UniProt P35222 1-781); assay: cell-based or functional assay
T2 sequence (looked up): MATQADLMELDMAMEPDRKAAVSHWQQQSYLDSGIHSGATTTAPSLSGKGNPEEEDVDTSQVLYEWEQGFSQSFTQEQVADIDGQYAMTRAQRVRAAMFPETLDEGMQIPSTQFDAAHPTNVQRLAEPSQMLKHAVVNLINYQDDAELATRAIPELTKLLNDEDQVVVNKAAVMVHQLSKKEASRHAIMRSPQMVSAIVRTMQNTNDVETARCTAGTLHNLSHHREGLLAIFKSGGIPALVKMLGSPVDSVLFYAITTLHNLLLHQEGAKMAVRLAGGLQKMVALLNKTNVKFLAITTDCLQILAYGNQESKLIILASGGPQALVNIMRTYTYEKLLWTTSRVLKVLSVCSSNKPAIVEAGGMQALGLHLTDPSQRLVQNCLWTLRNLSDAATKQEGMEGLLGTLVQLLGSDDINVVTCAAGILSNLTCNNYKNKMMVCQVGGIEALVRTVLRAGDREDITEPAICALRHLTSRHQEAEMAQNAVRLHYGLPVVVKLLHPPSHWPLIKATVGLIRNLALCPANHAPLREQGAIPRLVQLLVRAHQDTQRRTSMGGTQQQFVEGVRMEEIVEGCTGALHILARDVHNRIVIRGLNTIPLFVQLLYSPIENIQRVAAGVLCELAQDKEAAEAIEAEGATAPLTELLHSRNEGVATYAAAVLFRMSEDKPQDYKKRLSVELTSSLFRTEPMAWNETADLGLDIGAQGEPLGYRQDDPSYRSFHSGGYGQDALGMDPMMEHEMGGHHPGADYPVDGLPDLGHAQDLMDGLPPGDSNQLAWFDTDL

Binder | NanoBRET Abs IC50 [µM]
Ac-[αAllylPro]D[tBuAla][B5(4)]D[TfeGA″]AAFL[PyrS2(4)][3Thi][Bta][BnBoroleK]-NH2 (staple 1-4, 4-11; reading uncertain; also: later-eluting HPLC isomer peak) [I-2187] | 10.8
Ac-[αAllylPro]D[tBuAla][B5(4)]D[Phe(3-COOH)]QAFL[PyrS2″][3Thi][Bta][tBuAla]-NH2 (staple 1-4, 4-11) [I-2192] | 16.1
B1 | 7.6
B2 | 33.4
Ac-[αAllylPro]D[tBuAla][B5(4)]D[Phe(3-COOH)][Me2Asn]AFL[PyrS2″][3Thi][Bta]V-NH2 (staple 1-4, 4-11) [I-2191] | 29.5
Ac-[αAllylPro]D[tBuAla][B5(4)]D[Phe(3-COOH)]SAFL[PyrS2″][3Thi][Bta][tBuAla]-NH2 (staple 1-4, 4-11) [I-2195] | 21
Ac-[αAllylPro]D[tBuAla][B5(4)]D[Phe(3-COOH)][Aib]AFL[PyrS2″][3Thi][Bta][tBuAla]-NH2 (staple 1-4, 4-11) [I-2194] | 8.8
Ac-[αAllylPro]D[tBuAla][B5(4)]D[Phe(3-COOH)][Me2Asn]AFL[PyrS2″][3Thi][Bta][tBuAla]-NH2 (staple 1-4, 4-11) [I-2196] | 39.3
Ac-[αAllylPro]D[tBuAla][B5(4)]D[Phe(3-COOH)][Nle]AFL[PyrS2″][3Thi][Bta]V-NH2 (staple 1-4, 4-11) [I-2189] | 33.4
Ac-[αAllylPro]D[tBuAla][B5(4)]D[Phe(3-COOH)][Nle]AFL[PyrS2″][3Thi][Bta][tBuAla]-NH2 (staple 1-4, 4-11) [I-2193] | 39.9
